The nature of data set [1]: Determination of the amyloidogenic character of the peptides by Thioflavin T fluorescence. It is filed as physicochemical. The settings on record: for % fluorescence: 800 μM peptide, ThT fluorescence normalized to 1p = 100% (16p and 9tp: 288 μM per FIG. 3 legend); for amyloidogenic character (in words): ThT fluorescence, Garnier-Delamarche representation. The method, then:
(§1) After thawing, a pre-dilution in milli Q H2O filtered through 0.2 μm was carried out in order to obtain a solution at a concentration close to the working concentration, greater than 1.25 times. This stock solution was left to incubate for 1 hour in a water bath at 25° C., and was then assayed spectrophotometrically and adjusted to the final working concentration of 1.25 times. The polymerization was initiated by adding ¼ of the volume of 5× fibrillation buffer (50 mM MOPS, 750 mM NaCl, pH=7.2) for a final concentration of 1× fibrillation buffer (10 mM MOPS, 150 mM NaCl, PH=7.2). The samples were left to incubate for 1.5-2 hours at 25° C. in a water bath. The study of the polymerization by fluorimetry was carried out under the same conditions, except that the 5× polymerization buffer was supplemented with Thioflavin T (ThT) at 100 μM in order to be able to observe the fluorescence. • (a) Determination of the Aggregative Character of the Peptides. Once polymerized, the samples were ultracentrifuged at 100,000 g for 5 minutes at 25° C. (Beckman TL100, rotor TL-A100). The supernatants of each sample were then collected. An assay at 280 nm in triplicate of each supernatant was then carried out in the presence of 1% SDS. The concentration of the supernatant was determined using the Beer-Lambert law A=ε×1×C; ε (peptides)=1450 M^−1cm^−1. The concentration of sedimentable species in the pellet was then deduced by the difference: “total concentration of the sample—concentration of free peptide present in the supernatant”. • (b) Determination of the Amyloidogenic Character of the Peptides. Once the peptides have polymerized as previously indicated, 40 μL of peptides polymerized at a concentration of 400 μM and 800 μM were diluted in 360 μL of Thioflavin T (10 μM ThT, 1×MOPS) in a thermostatically controlled tank of 0.2×1 cm, to a final volume of 400 μL. The fluorescence of the sample was then measured immediately after dilution by recording a fluorescence spectrum (470 nm to 600 nm) at an excitation wavelength of 450 nm (Perkin Elmer LS 55, PM 750, slit10).
(§2) After prediction of their amyloidogenic character by bioinformatics, all the peptides were studied using biochemical techniques, namely sedimentation and fluorescence/ThT. The biochemical experiments were carried out at two peptide concentrations: 400 μM and 800 μM. Only the results obtained at 800 μM are presented. At this concentration, in sedimentation, the amount of sedimentable peptide after polymerization was measured and expressed as a percentage as a function of the total concentration. This value corresponds to the aggregative character of the peptides. On the other hand, the fluorescence test was used to determine their amyloidogenic character, the fluorescence value given corresponds to a normalization with respect to 1p, considering that its fluorescence is 100% (Table 4).

A short description of data set [2]: Determination of the aggregative character of the peptides by sedimentation. The format is physicochemical. The settings on record: for % sedimentation: 800 μM peptide, sedimentable peptide after polymerization as percentage of total concentration (16p and 9tp: 288 μM per FIG. 3 legend); for aggregative character (in words): sedimentation, Garnier-Delamarche representation. How it is done:
as §1, §2

Data set [3] deals with cells of the neuroblastoma line SH-SY5Y. In words: Growth of SH-SY5Y neuroblastoma cells (images). It is filed as cell-based. The settings on record: 100 μM, 24 hours, 1×DMEM medium, 8% serum. The method, then:
The effects of three hexapeptides classified as “therapeutic” (1tp, 4tp, 6tp) and of two peptides classified as “amyloid” (7tp and 1p) on the growth of cells of the neuroblastoma line SH-SY5Y were studied after 24 hours of treatment in the presence of a hexapeptide at a concentration of 100 μM in 1×DMEM medium, 8% serum. The results obtained are presented on FIG. 10(A).

In data set [4] the target is T1, PHF6 peptide (VQIVYK, 1p) (Homo sapiens, UniProt P10636).
T1 construct: The polymerization of VQIVYK was initiated by adding ¼ of the volume of fibrillation buffer 5×
In words: Effects of the derived peptides on VQIVYK polymerization by spectrofluorimetry (ThT kinetics). It is filed as biochemical. The settings on record: [1p]=155 μM, [selected peptide]=310 μM; for fluorescence intensity (plateau / at 100 minutes) of 1p in the presence of peptide, % of 1p alone / maximum polymerization rate of 1p in the presence of peptide, % of 1p alone: [ThT]=32 μM; for inhibitory effect on 1p (PHF6) polymerization (in words): thresholds 50% rate, 100% fluorescence intensity.

Values joined by “and” are separate entries in the source; they are usually repeats but may differ in a detail not shown here. Equal entries are not always repeated. “Also recorded” adds a separate entry of the source.

These results are taken from patent US20260248877A1 (Universite de Rennes, priority 2021, published 2026).

Regarding VVQKYI (Ac-VVQKYI-NH2) [6p], in data set [1], the “% fluorescence” value worked out at 0.2% and the “amyloidogenic character (in words)” value is “weakly amyloidogenic; also recorded: very poorly amyloidogenic”. Further, in data set [2], the “% sedimentation” value came out at 14% and the “aggregative character (in words)” value is listed as “weakly aggregative; also recorded: more aggregative than the 10 selected hexapeptides”.
The matching figures for QKVYIV (Ac-QKVYIV-NH2) [19p]: 0.8%, “vice versa”, 76% and “vice versa”.
Ac-IQVVYK-NH2 [7tp, IQVVYK]: in data set [3], the “effect on cell growth (number and appearance of cells)” value (from here on “effect on cell growth”) was “the number of cells seemed to strongly decrease”.
On to QKVVYI (Ac-QKVVYI-NH2) [18p], for which the “% fluorescence” value in data set [1] worked out at 6.8%. Also, the “% sedimentation” value in data set [2] is recorded as 51%.
On to QVIKYV (Ac-QVIKYV-NH2) [23p], for which, in data set [4], the “category of polymerization kinetics of 1p in the presence of peptide” value (“category” below) is “very high rate and intensity of fluorescence”; the “fluorescence intensity (plateau / at 100 minutes) of 1p in the presence of peptide, % of 1p alone” value stood at 161.7%; the “maximum polymerization rate of 1p in the presence of peptide, % of 1p alone” value is 65%; the “inhibitory effect on 1p (PHF6) polymerization (in words)” value (“inhibitory effect on 1p” below) is given as “non-inhibitory peptide; also recorded: without any inhibitory effect”. For the same substance, in data set [1], the “% fluorescence” value amounted to 0.8% and the “amyloidogenic character (in words)” value is recorded as “weakly amyloidogenic”. Besides, in data set [2], the “% sedimentation” value is on record as 5% and the “aggregative character (in words)” value is given as “weakly aggregative”.
For KVQYVI (Ac-KVQYVI-NH2) [14p], in data set [4], the “category” value was “generally follow the kinetics of 1p alone” and the “inhibitory effect on 1p” value was “without any inhibitory effect”. For the same substance, in data set [1], the “% fluorescence” value is on record as 4.4% and the “amyloidogenic character (in words)” value was “weakly amyloidogenic”. In data set [2], the “% sedimentation” value is on record as 1% and the “aggregative character (in words)” value was “weakly aggregative”.
Turning to QKYIVV (Ac-QKYIVV-NH2) [8p], in data set [4], the “category” value is “very high rate and intensity of fluorescence”; the “inhibitory effect on 1p” value was “without any inhibitory effect”. Further, the “% fluorescence” value in data set [1] came out at 1.9%. In addition, in data set [2], the “% sedimentation” value stood at 0%.
Consider YIVVQK (Ac-YIVVQK-NH2) [13p], for which, in data set [4], the “category” value is “generally follow the kinetics of 1p alone” and the “inhibitory effect on 1p” value is reported as “without any inhibitory effect”. Further, in data set [1], the “% fluorescence” value is 2.7% and the “amyloidogenic character (in words)” value is “weakly amyloidogenic”. In addition, in data set [2], the “% sedimentation” value was found to be 0% and the “aggregative character (in words)” value is listed as “weakly aggregative”.
Turning to VQVIYK (Ac-VQVIYK-NH2) [12p], the “% fluorescence” value in data set [1] is 82% and 81.6%. Also, the “% sedimentation” value in data set [2] came to 14%.
For the substance VKVYIQ (Ac-VKVYIQ-NH2) [11p], in data set [1], the “% fluorescence” value was 25%. Also, in data set [2], the “% sedimentation” value is reported as 6%.
The matching figures for YQVIVK (Ac-YQVIVK-NH2) [17p]: 2.3% and 95%.
Turning to VKYQVI (Ac-VKYQVI-NH2) [3p], in data set [1], the “% fluorescence” value came out at 0.2% and the “amyloidogenic character (in words)” value is “very poorly amyloidogenic”. In data set [2], the “% sedimentation” value is reported as 18% and the “aggregative character (in words)” value was “more aggregative than the 10 selected hexapeptides”.
In the case of VQIKYV (Ac-VQIKYV-NH2) [0tp], the “% fluorescence” value in data set [1] worked out at 10.7%. In addition, in data set [2], the “% sedimentation” value is recorded as 0%.
Take IKQVYV (Ac-IKQVYV-NH2) [5p]: in data set [4], the “category” value is “generally follow the kinetics of 1p alone” and the “inhibitory effect on 1p” value is on record as “marked inhibitory effect; also recorded: with a weak inhibitory effect”. In data set [1], the “% fluorescence” value was found to be 1.1% and the “amyloidogenic character (in words)” value is on record as “weakly amyloidogenic”. Also, in data set [2], the “% sedimentation” value is 5% and the “aggregative character (in words)” value is reported as “weakly aggregative”.
For KYVIQV (Ac-KYVIQV-NH2) [15p], the “% fluorescence” value in data set [1] was 3.9%. Moreover, the “% sedimentation” value in data set [2] is given as 71%.
In the same order, the values of VVIKYQ (Ac-VVIKYQ-NH2) [3tp] are 0.9% and 48%.
Turning to IYVQKV (Ac-IYVQKV-NH2) [9p], in data set [4], the “category” value is recorded as “generally follow the kinetics of 1p alone” and the “inhibitory effect on 1p” value is given as “without any inhibitory effect”. Besides, in data set [1], the “% fluorescence” value is 2.1% and the “amyloidogenic character (in words)” value is given as “weakly amyloidogenic”. For the same substance, in data set [2], the “% sedimentation” value is 1% and the “aggregative character (in words)” value is on record as “weakly aggregative”.
For IQYVVK (Ac-IQYVVK-NH2) [8tp], the “% fluorescence” value in data set [1] amounted to 17.5%. Also, in data set [2], the “% sedimentation” value is on record as 78%.
The matching figures for VQVYKI (Ac-VQVYKI-NH2) [22p]: 3% and 34%.
VQYVIK (Ac-VQYVIK-NH2) [5tp]: in data set [1], the “% fluorescence” value is listed as 71.7% and the “amyloidogenic character (in words)” value is “amyloidogenic”. Also, in data set [2], the “% sedimentation” value turned out to be 26% and the “aggregative character (in words)” value is reported as “aggregative”.
In the case of KVQIVY (Ac-KVQIVY-NH2) [10p], the “% fluorescence” value in data set [1] is reported as 3.2%. For the same substance, the “% sedimentation” value in data set [2] is listed as 63%.
As to VQKIYV (Ac-VQKIYV-NH2) [4p], in data set [4], the “category” value was “generally follow the kinetics of 1p alone”; the “fluorescence intensity (plateau / at 100 minutes) of 1p in the presence of peptide, % of 1p alone” value is 80%; the “maximum polymerization rate of 1p in the presence of peptide, % of 1p alone” value was determined as 50%; the “inhibitory effect on 1p” value is listed as “inhibits the polymerization of 1p; also recorded: marked inhibitory effect; also recorded: with a weak inhibitory effect”. Also, in data set [1], the “% fluorescence” value is recorded as 0.8% and the “amyloidogenic character (in words)” value is “weakly amyloidogenic”. Further, in data set [2], the “% sedimentation” value amounted to 1% and the “aggregative character (in words)” value was “weakly aggregative”.
For VQVKYI (Ac-VQVKYI-NH2) [21p], in data set [1], the “% fluorescence” value came to 19.9% and the “amyloidogenic character (in words)” value is on record as “amyloidogenic”. Further, in data set [2], the “% sedimentation” value is recorded as 33% and the “aggregative character (in words)” value was “poorly aggregative”.
In the case of “Ac-VQIVYK-NH2 [1p, Ac-VQIVYK-NH2, reference compound]”, in data set [3], the “effect on cell growth” value is given as “the number of cells seemed to strongly decrease”. The “amyloidogenic character (in words)” value in data set [1] is listed as “strong amyloidogenic”. The “aggregative character (in words)” value in data set [2] is recorded as “self-aggregative”.
For the substance KQIVYV (Ac-KQIVYV-NH2) [20p], the “% fluorescence” value in data set [1] is given as 1.3%. Besides, the “% sedimentation” value in data set [2] is on record as 75%.
The matching figures for VKVIYQ (Ac-VKVIYQ-NH2) [7p]: 1.3% and 86%.
Take VVIQYK (Ac-VVIQYK-NH2) [2tp]: the “% fluorescence” value in data set [1] amounted to 2.9%. In addition, the “% sedimentation” value in data set [2] came to 58%.
As to Ac-VKIQYV-NH2 [4tp, VKIQYV], the “effect on cell growth” value in data set [3] was “did not seem to have any effect”.
Consider KYIQVV (Ac-KYIQVV-NH2) [2p], for which, in data set [1], the “% fluorescence” value was 2.8%. Besides, in data set [2], the “% sedimentation” value came to 67%.
